# In patent publication US20250042970A1 (AURINIA PHARMACEUTICALS, published 2025):
# Read-outs that look alike come from different tables or passages of the source. Ends that are not written are not given here.
# T1: FLAG-tagged cynomolgous APRIL (cynomolgus monkey, UniProt A0ACM8R0G4 110-250 (rhesus entry))
# T1 construct: FLAG-tagged, expressed with TPA signal peptide; also called cyAPRIL
# T1 sequence: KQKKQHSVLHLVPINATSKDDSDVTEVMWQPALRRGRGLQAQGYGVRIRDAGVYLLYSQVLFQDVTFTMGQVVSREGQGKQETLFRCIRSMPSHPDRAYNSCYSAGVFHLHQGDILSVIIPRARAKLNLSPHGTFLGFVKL
# T2: FLAG-tagged recombinant human APRIL (human, UniProt O75888 105-250)
# T2 construct: KINEXA ligand; also called huAPRIL
# T2 sequence: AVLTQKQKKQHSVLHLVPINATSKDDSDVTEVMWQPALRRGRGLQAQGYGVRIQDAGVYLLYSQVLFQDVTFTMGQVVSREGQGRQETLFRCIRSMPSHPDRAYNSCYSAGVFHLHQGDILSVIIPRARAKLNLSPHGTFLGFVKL
# Columns and labels:
# [1] = target: T1, FLAG-tagged cynomolgous APRIL; assay: BIACORE SPR
# Description: (§1) For human BAFF, cynomolgus monkey APRIL, and mouse APRIL measurements, mouse monoclonal antibody (IgG1) anti-FLAG M2 (Sigma Aldrich, Cat. No. F1804) was immobilized on CM3 sensor chips (GE Healthcare, Cat. No. BR-1005-41) according to the manufacturer's protocol. Antibody was diluted to 30 μg/ml in immobilization buffer (10 mM pH 5±0.20; GE Healthcare; GE Healthcare, Catalog No. BR-1003-51). […] Unreacted sites were quenched with 35 μl of 1M ethanolamine-HCl, pH 8.5 (GE Healthcare, GE Healthcare, Cat. No. BR-1000-50). This procedure typically yielded 3,000-4,000 response units (RU) of coupled antibody.
# (§2) The fusion polypeptides were diluted in HBS-EP buffer and flowed over ligand-coated sensor chips. The variant BCMA-Ig and surrogate control fusion proteins were injected at three concentrations (1.5 nM, 15 nM, and 150 nM at 30 μl/min for 2 minutes per association phase) in a single binding cycle, followed by a 20 minute incubation with HBS-EP buffer containing no protein at the same flow rate. A similar protocol was followed for Z-TACI-Ig, except that the injections were at 4.5 nM, 45 nM, and 450 nM.
# (§3) The various fusion proteins described above were expressed and purified as described previously (Examples 2 and 3 for the CET1019AS based plasmids and Examples 7 and 8 for the pcDNA based plasmids). […] The BAv9-1-Ig Fc proteins typically exist in solution as a dimeric fusion protein. The purified fusion proteins were assayed for binding activity using BIACORE (Example 9) and KINEXA (Example 11) assays.
# FLAG-tagged human BAFF [2] = target: T3, FLAG-tagged human BAFF (human, UniProt Q9Y275 134-285, limits assumed); assay: BIACORE SPR
# T3 construct: used in BIACORE (Ex. 9) and KINEXA (Ex. 11); also called huBAFF
# Description: as §1, §2, §3
# [3] = target: T2, FLAG-tagged recombinant human APRIL; assay: KinExA
# Description: (§4) Equilibrium measurements were performed using FLAG-tagged, recombinant huBAFF and huAPRIL ligands. Fixed ligand concentrations of human BAFF or human APRIL were incubated with serial dilutions of the variant BCMA ECD-Ig fusion polypeptides, and free ligand was detected in a KINEXA 3200 Instrument. variant BCMA ECD-Ig fusion polypeptides were first diluted in equilibration buffer (1×PBS, pH 7.4, 1 mg/ml BSA) to a range of concentrations from 10 nM to 100 fM. The linear portion of the dilution series was typically 2-fold. Ligands were diluted in equilibration buffer to fixed concentrations ranging from 5 to 20 pM and then incubated with the variant BCMA-Ig dilutions in total reaction volumes ranging from 4.5 to 15 ml. Samples were incubated at room temperature for 48-72 hours to reach equilibrium. For each data point, a fresh column of 850 μl of bead slurry coated with Variant BAv-238475-Ig was introduced into the KINEXA flow cell. Equilibrated samples ranging from 1 to 5 ml reaction volume were injected at a flow rate of 0.25 ml/min. […] The DyLight 649 fluorescent signal was detected using the red filter set (620/30 nanometer excitation filter, 670/40 nanometer emission filter, 645 nanometer dichroic filter) on the KinExA instrument and converted to a voltage signal that was directly proportional to the concentration of free ligand in the equilibrated sample.
# as §3
# FLAG-tagged human BAFF [4] = target: T3, FLAG-tagged human BAFF; assay: KinExA
# Description: as §4, §3
# [5] = target: T2, FLAG-tagged recombinant human APRIL; assay: KinExA; remark: listed apart in the source
# Description: as §4
# (§5) The standard kinetic exclusion assays and data analyses described above were performed on protein preparations of various variant BCMA ECD-Ig fusion polypeptides, as well as Z-TACI-Ig and [S40G]huBCMA ECD-Ig fusion polypeptides. FIG. 8A, FIG. 8B, and Table 4 summarize the binding data for representative variant BCMA ECD-Ig polypeptides and controls in molar concentrations of huBAFF or huAPRIL determined by KINEXA binding assays.
# FLAG-tagged human BAFF [6] = target: T3, FLAG-tagged human BAFF; assay: KinExA; remark: listed apart in the source
# Description: as §4, §5
# [7] = target: T2, FLAG-tagged recombinant human APRIL; assay: KinExA; remark: listed apart in the source
# Description: as §4
# (§6) Table 5 provides the selectivities of exemplary variant BCMA polypeptides with respect to BAFF and APRIL.
# FLAG-tagged human BAFF [8] = target: T3, FLAG-tagged human BAFF; assay: KinExA; remark: listed apart in the source
# Description: as §4, §6
# [9] = target: T1, FLAG-tagged cynomolgous APRIL; assay: BIACORE SPR; NB = No binding
# Description: as §1, §2
# (§7) Using available information from the structures and published literature, several residues in BAv8-10 were targeted for substitution with conserved as well as non-conserved residues and their effect on BAFF and APRIL binding was assessed by BIACORE.
# FLAG-tagged human BAFF [10] = target: T3, FLAG-tagged human BAFF; assay: BIACORE SPR; NB = No binding
# Description: as §1, §2, §7
Kd [1],Kd (FLAG-tagged human BAFF [2]),Kd [3],Kd (FLAG-tagged human BAFF [4]),Kd [5],fold improvement over control [5],Kd (FLAG-tagged human BAFF [6]),fold improvement over control (FLAG-tagged human BAFF [6]),Selectivity for huAPRIL (KD BAFF/KD APRIL) [7],Selectivity for huBAFF (KD APRIL/KD BAFF) (FLAG-tagged human BAFF [8]),binding result [9],binding result (FLAG-tagged human BAFF [10]),Binder
42.5 pM,17.5 pM,1.26 pM,0.301 pM,,,,,,,,,"AGQCSQNEYFDHLIRACIPCQLRCSSNTPPLTCQRYCNAGVTNSVGGGGS (Fc fusion, not shown: PIg18: human IgG2 Fc, Ser at Fc positions 4, 5, 11 (native Cys)) [BAv9-1-5L-pIg18]"
33.7 pM,15.7 pM,0.088 pM,0.537 pM,,,,,,,,,"AGQCSQNEYFDHLIRACIPCQLRCSSNTPPLTCQRYCNAGVTNSVKGTNA (Fc fusion, human, domain: Fc; not shown: PIg22: chimeric Fc, CH2 domain of PIg18 (human IgG2 derivative) and CH3 domain of human IgG1) [BAv9-1-pIg22]"
707 pM,8.09 pM,114 pM,0.254 pM,114 pM,0.0014 fold,0.254 pM,890 fold,0.002 ratio,449 ratio,,,"AGQCSQNEYFDPLVRACIPCQIRCSSNTPPLTCQRYCNAGVTNSVKGTNA (Fc fusion, also called BAv83 (2)-Ig; BAv83-pIg18; not shown: PIg18: human IgG2 Fc, Ser at Fc positions 4, 5, 11 (native Cys)) [BAv83-Ig]"
41.8 pM,16.5 pM,0.611 pM,0.864 pM,,,,,,,,,"AGQCSQNEYFDHLIRACIPCQLRCSSNTPPLTCQRYCNAGVTNSVGGGGS (Fc fusion, human, not fully specified (C-terminus); cysteine pairing not given here; also: terminal Fc lysine may be cleaved off ([K278]del), domain: Fc; terminal lysine may be cleaved off; also called BAv9-1-5L-pIg22 [K278]del; not shown: PIg22: chimeric Fc, CH2 domain of PIg18 (human IgG2 derivative) and CH3 domain of human IgG1) [BAv9-1-5L-pIg22]"
,,,,,,,,,,no binding (tested: 150 nM),no binding (tested: 150 nM),"AGQCSQNEYFDHLSRACIPCQVRCSSNTPPLTCQRYCNAGVTNSVKGTNA (Fc fusion, not shown: PIg18: human IgG2 Fc, Ser at Fc positions 4, 5, 11 (native Cys)) [BAv54-Ig]"
,,,,,,,,,,no binding (tested: 150 nM),no binding (tested: 150 nM),"AGQCSQNEYFDSLVRACQPCQVRCSSNTPPLTCQRYCNAGVTNSVKGTNA (Fc fusion, not shown: PIg18: human IgG2 Fc, Ser at Fc positions 4, 5, 11 (native Cys)) [BAv67-Ig]"
773 pM,8.03 pM,132 pM,0.085 pM,132 pM,0.0012 fold,0.0847 pM,2660 fold,0.001 ratio,1560 ratio,,,"AGQCSQNEYFDHLVRACIPCQARCSSNTPPLTCQRYCNAGVTNSVKGTNA (Fc fusion, also called BAv85 (2)-Ig; BAv85-pIg18; not shown: PIg18: human IgG2 Fc, Ser at Fc positions 4, 5, 11 (native Cys)) [BAv85-Ig]"
,,,,,,,,,,no binding (tested: 150 nM),no binding (tested: 150 nM),"AGQCSQNEYFDHLVRACQPCQLRCSSNTPPLTCQRYCNAGVTNSVKGTNA (Fc fusion, not shown: PIg18: human IgG2 Fc, Ser at Fc positions 4, 5, 11 (native Cys)) [BAv69-Ig]"
,,,,,,,,,,no binding (tested: 150 nM),no binding (tested: 150 nM),"AGQCSQNEYFDHLIRACQPCQLRCSSNTPPLTCQRYCNAGVTNSVKGTNA (Fc fusion, not shown: PIg18: human IgG2 Fc, Ser at Fc positions 4, 5, 11 (native Cys)) [BAv70-Ig]"
,,,,,,,,,,no binding (tested: 150 nM),no binding (tested: 150 nM),"AGQCSQNEYFDHLIRACIPCQVTCSSNTPPLTCQRYCNAGVTNSVKGTNA (Fc fusion, not shown: PIg18: human IgG2 Fc, Ser at Fc positions 4, 5, 11 (native Cys)) [BAv76-Ig]"
,,,,,,,,,,no binding (tested: 150 nM),no binding (tested: 150 nM),"AGQCSQNEYFDHLVRACIPCQVTCSSNTPPLTCQRYCNAGVTNSVKGTNA (Fc fusion, not shown: PIg18: human IgG2 Fc, Ser at Fc positions 4, 5, 11 (native Cys)) [BAv77-Ig]"
1450 pM,16.2 pM,313 pM,0.842 pM,313 pM,0.00051 fold,0.842 pM,268 fold,0.003 ratio,372 ratio,,,"AGQCSQNEYFDPLIRACIPCQVRCSSNTPPLTCQRYCNAGVTNSVKGTNA (Fc fusion, also called BAv49 (3)-Ig; BAv49-pIg18; not shown: PIg18: human IgG2 Fc, Ser at Fc positions 4, 5, 11 (native Cys)) [BAv49-Ig]"
,,,,,,,,,,no binding (tested: 150 nM),no binding (tested: 150 nM),"AGQCSQNEYFDSLIRACQPCQVRCSSNTPPLTCQRYCNAGVTNSVKGTNA (Fc fusion, not shown: PIg18: human IgG2 Fc, Ser at Fc positions 4, 5, 11 (native Cys)) [BAv68-Ig]"
45.6 pM,16.5 pM,0.32 pM,0.484 pM,,,,,,,,,"AGQCSQNEYFDHLIRACIPCQLRCSSNTPPLTCQRYCNAGVTNSVGGTNA (Fc fusion, human, domain: Fc; not shown: PIg22: chimeric Fc, CH2 domain of PIg18 (human IgG2 derivative) and CH3 domain of human IgG1) [BAv9-1K46G-pIg22]"
2060 pM,8.31 pM,364 pM,0.246 pM,364 pM,0.00044 fold,0.246 pM,917 fold,0.001 ratio,1480 ratio,,,"AGQCSQNEYFDPLVRACIPCQVRCSSNTPPLTCQRYCNAGVTNSVKGTNA (Fc fusion, also called BAv81 (2)-Ig; BAv81-pIg18; not shown: PIg18: human IgG2 Fc, Ser at Fc positions 4, 5, 11 (native Cys)) [BAv81-Ig]"
41.8 pM,20.4 pM,0.31 pM,0.417 pM,,,,,,,,,"AGQCSQNEYFDHLIRACIPCQLRCSSNTPPLTCQRYCNAGVTNSV (Fc fusion, human, cysteine pairing not given here; also: fused to PIg22 Fc, not in chain, domain: Fc; also called BAv9-1-des[K46-A50]-PIg22; not shown: PIg22: chimeric Fc, CH2 domain of PIg18 (human IgG2 derivative) and CH3 domain of human IgG1) [BAv9-1-[K46-A50]del-pIg22]"
